B1: TACI-ECD.hFc immunoadhesin (amino acids 2-166 of human TACI fused to human IgG1 Fc) (Fc fusion, not shown: a dimerising Fc or GST)
chain: SGLGRSRRGGRSRVDQEERFPQGLWTGVAMRSCPEEQYWDPLLGTCMSCKTICNHQSQRTCAAFCRSLSCRKEQGKFYDHLLRDCISCASICGQHPKQCAYFCENKLRSPVNLPPELRRQRSGEVENNSDNSGRYQGLEHRGSEASPALPGLKLSADQVALVYST
notes: also called TACI-IgG; TACI-Fc
B2: BCMA-ECD immunoadhesin (amino acids 5-51 of human BCMA fused to human IgG1 Fc) (Fc fusion, not shown: a dimerising Fc or GST)
chain: AGQCSQNEYFDSLLHACIPCQLRCSSNTPPLTCQRYCNASVTNSVKG
modifications: not fully specified (C-terminus); cysteine pairing not given here; also: C-terminal fusion to human IgG1 Fc (limits not given here)
notes: also called BCMA-IgG; BCMA-Fc
B3: Flag-AP-APRIL (ligand)
chain: AVLTQKQKKQHSVLHLVPINATSKDDSDVTEVMWQPALRRGRGLQAQGYGVRIQDAGVYLLYSQVLFQDVTFTMGQVVSREGQGRQETLFRCIRSMPSHPDRAYNSCYSAGVFHLHQGDILSVIIPRARAKLNLSPHGTFLGFVKL
notes: APRIL fused C-terminally to AP, AP fused C-terminally to Flag; not shown: Flag tag of the pCMV-1 Flag vector; human placental alkaline phosphatase
B4: Flag-APRIL (ligand, not shown: small tags and cut ends)
chain: B3 chain
notes: also called Flag-tagged APRIL fusion protein
B5: Flag-LIGHT (ligand, UniProt O43557 82-240, looked up, not shown: small tags and cut ends)
chain: QLIQERRSHEVNPAAHLTGANSSLTGSGGPLLWETQLGLAFLRGLSYHDGALVVTKAGYYYIYSKVQLGGVGCPLGLASTITHGLYKRTPRYPEELELLVSQQSPCGRATSSSRVWWDSSFLGGVVHLEAGEKVVVRVLDERLVRLRDGTRSYFGAFMV
notes: range 82-240; Control ligand; purified on M2 anti-Flag resin; also called Flag-tagged form of LIGHT
B6: AP-EDA (comprising amino acids 241-391 of EDA) (ligand, UniProt Q92838 241-391, looked up)
chain: AGTRENQPAVVHLQGQGSAIQVKNDLSGGVLNDWSRITMNPKVFKLHPRSGELEVLVDGTYFIYSQVEVYYINFTDFASYEVVVDEKPFLQCTRSIETGKTNYNTCYTAGVCLLKARQKIAVKMVHADISINMSKHTTFFGAIRLGEAPAS
notes: range 241-391; Used as conditioned medium; not shown: human placenta alkaline phosphatase (AP)
B7: BCMA, expressed on transfected cells (receptor)
chain: MLQMAGQCSQNEYFDSLLHACIPCQLRCSSNTPPLTCQRYCNASVTNSVKGTNAILWTCLGLSLIISLAVFVLMFLLRKISSEPLKDEFKNTGSGLLGMANIDLEKSRTGDEIILPRGLEYTVEECTCEDCIKSKPKVDSDHCFPLPAMEEGATILVTTKTNDYCKSLPAALSATEIEKSISAR

The target of test [1] is B4. Put plainly: ELISA: Flag-APRIL plus control IgG on BCMA-IgG captured by anti-human Fc; bound Flag-APRIL detected with biotinylated anti-Flag.
For test [2], the target named is B4. As to the kind of experiment: ELISA: Flag-APRIL plus control IgG on TACI-IgG captured by anti-human Fc; bound Flag-APRIL detected with biotinylated anti-Flag. (In general: An ELISA detects its analyte on a solid surface through an enzyme-linked reagent.)
Test [3] addresses T1, Human TNF-alpha, membrane form on transfected COS 7 cells (Flag tag inserted between amino acid 70 and 71) (human, UniProt P01375 1-233).
T1 construct: whole, on cells
As to the kind of experiment: Fc fusion on ligand-transfected COS 7 cells, biotinylated anti-human antibody and Cy3-streptavidin staining. How it is done: Additional assays were conducted to determine whether TACI could serve as a receptor for other members of the TNF family of ligands. COS 7 cells (ATCC) were transiently transfected (using Lipofectamine reagent) with membrane forms of various ligands of TNF family. Among the ligands tested were APRIL, TALL-1, 4-1 BBL, CD27L, CD30L, CD40L, EDA, FasL, GITRL, LT-alpha, OX-40L, RANKL, TNF-alpha, TNF-beta and Apo2L/TRAIL.
For the detection of TNF-alpha expression on the cell surface, a Flag tag was inserted between amino acid 70 and amino acid 71 (using the numbering according to the sequence in Pennica et al., supra). An extracellular region of TALL-1 (aa 75-285; see FIG. 3), 4-1BBL (aa 59-254; Goodwin et al., Eur. J. Immunol., 23:2631-2641 (1993)), CD27 ligand (aa 40-193; Goodwin et al., Cell, 73:447-456 (1993)), CD30 ligand (aa 61-234; Smith et al., Cell, 73:1349-1360 (1993)), RANKL (aa 71-317; see WO98/28426), Apo-2 ligand (aa 40-281; see WO97/25428) or Apo-3L (aa 46-249; see WO99/19490) was individually cloned at the BamHI site. […] For APRIL (see FIG. 4) and EDA (Srivastava et al., supra), full length cDNA clones without Flag tag were used.
Transfected COS 7 cells were subsequently incubated with TACI.ECD.hFC immunoadhesin (prepared as described above). […]

For test [4], the target named is B4. Put plainly: co-immunoprecipitation and Western blot. How it is done: One μg of the purified human or Flag-LIGHT (control), Flag-APRIL, or Flag-TALL-1, or Flag-AP-APRIL, or Flag-AP-TALL-1 was incubated with 1 μg of purified human immunoadhesin containing the IgG1-Fc fusion of the ECD of DcR3 (control; Pitti et al., Nature, 396:699-703 (1998)) or TACI or BCMA overnight at 4° C. in duplicate. The TACI-ECD.hFc immunoadhesins were prepared by methods described in Ashkenazi et al., Proc. Natl. Acad. Sci., 88:10535-10539 (1991). The immunoadhesin constructs consisted of amino acids 2-166 of the human TACI polypeptide (see FIG. 1). The TACI-ECD constructs were expressed in CHO cells using a heterologous signal sequence (pre-pro trypsin amino acids 1-17 of pCMV-1 Flag (Sigma)) and encoding the human IgG1 Fc region downstream of the TACI sequence, and then purified by protein A affinity chromatography. The BCMA-ECD immunoadhesins were prepared by methods described in Ashkenazi et al., as cited above. […]
One set of reactions (FIG. 8; Panels A-C) was subjected to immunoprecipitation through the receptor-immunoadhesin with protein A-agarose (Repligen). […] The immunoprecipitates were then analyzed by Western blot with horseradish peroxidase-conjugated anti-Flag M2 mAb (Sigma) to detect the Flag-tagged ligands (FIGS. 8A-C) or horseradish peroxidase-conjugated goat anti-human IgG pAb (Amersham) to detect the receptor-immunoadhesins (FIGS. 8D-F).
(In general: Immunoblotting shows a protein as a band on a membrane.)

The target of the test “Flag-LIGHT” is B5. Put plainly: co-immunoprecipitation (protein A or anti-Flag M2 agarose) and Western blot. The procedure:
(§1) One μg of the purified human or Flag-LIGHT (control), Flag-APRIL, or Flag-TALL-1, or Flag-AP-APRIL, or Flag-AP-TALL-1 was incubated with 1 μg of purified human immunoadhesin containing the IgG1-Fc fusion of the ECD of DcR3 (control; Pitti et al., Nature, 396:699-703 (1998)) or TACI or BCMA overnight at 4° C. in duplicate. The TACI-ECD.hFc immunoadhesins were prepared by methods described in Ashkenazi et al., Proc. Natl. Acad. Sci., 88:10535-10539 (1991). The immunoadhesin constructs consisted of amino acids 2-166 of the human TACI polypeptide (see FIG. 1). The TACI-ECD constructs were expressed in CHO cells using a heterologous signal sequence (pre-pro trypsin amino acids 1-17 of pCMV-1 Flag (Sigma)) and encoding the human IgG1 Fc region downstream of the TACI sequence, and then purified by protein A affinity chromatography. The BCMA-ECD immunoadhesins were prepared by methods described in Ashkenazi et al., as cited above. The immunoadhesin constructs consisted of amino acids 5-51 of the human BCMA polypeptide (see FIG. 2). The BCMA-ECD constructs were expressed in CHO cells using a heterologous signal sequence (pre-pro trypsin amino acids 1-17 of pCMV-1 Flag (Sigma)) and encoding the human IgG1 Fc region downstream of the BCMA sequence, and then purified by protein A affinity chromatography.
(§2) One set of reactions (FIG. 8; Panels A-C) was subjected to immunoprecipitation through the receptor-immunoadhesin with protein A-agarose (Repligen). The second set of reactions (FIG. 8; panels D-F) was subjected to immunoprecipitation through the Flag-tagged ligand with Anti-Flag mAb-M2-agarose (Sigma). The immunoprecipitates were then analyzed by Western blot with horseradish peroxidase-conjugated anti-Flag M2 mAb (Sigma) to detect the Flag-tagged ligands (FIGS. 8A-C) or horseradish peroxidase-conjugated goat anti-human IgG pAb (Amersham) to detect the receptor-immunoadhesins (FIGS. 8D-F).

Test [5] addresses T2, DcR3-IgG (IgG1-Fc fusion of the ECD of DcR3) (human, UniProt O95407 30-300, limits assumed).
T2 construct: extracellular domain; Control immunoadhesin; not shown: IgG1 Fc
T2 sequence (looked up): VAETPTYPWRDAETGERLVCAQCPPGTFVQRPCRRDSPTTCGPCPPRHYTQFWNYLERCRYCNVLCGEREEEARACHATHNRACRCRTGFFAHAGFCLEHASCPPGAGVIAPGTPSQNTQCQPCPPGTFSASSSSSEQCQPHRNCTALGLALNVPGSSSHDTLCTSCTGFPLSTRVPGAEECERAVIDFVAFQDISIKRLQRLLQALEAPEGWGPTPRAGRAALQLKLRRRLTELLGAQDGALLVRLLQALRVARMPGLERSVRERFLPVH
The description is as above. The procedure:
as §1, §2

Test [6] has as its target T3, TACI (the 265 amino acid form of human TACI, hTACI (265)), expressed on transfected cells (human, UniProt O14836 1-258).
T3 sequence: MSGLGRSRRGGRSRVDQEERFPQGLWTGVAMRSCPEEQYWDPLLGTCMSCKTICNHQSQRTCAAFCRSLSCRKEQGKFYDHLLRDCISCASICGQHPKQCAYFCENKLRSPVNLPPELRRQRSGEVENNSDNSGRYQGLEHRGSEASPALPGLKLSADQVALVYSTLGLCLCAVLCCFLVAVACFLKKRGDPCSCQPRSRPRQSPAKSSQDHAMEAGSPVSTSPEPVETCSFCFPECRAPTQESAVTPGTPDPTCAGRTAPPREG
As to the kind of experiment: conditioned medium on receptor-transfected COS 7 cells, in situ AP staining.

For test [7], the target named is B1. Put plainly: co-immunoprecipitation (protein A or anti-Flag M2 agarose) and Western blot. How it is done:
as §1, §2

Test [8] has as its target T3, TACI (the 265 amino acid form of human …). As to the kind of experiment: conditioned medium on TACI-transfected COS 7 cells, in situ AP staining. The procedure: In an in vitro assay, COS 7 cells (ATCC) were seeded into 12 well plates 24 hours before transfection. The cells were then transfected with 1 microgram TACI (the 265 amino acid form of human TACI described above, cloned in pRK5B vector, infra) or vector plasmid (pRK5B) alone. 18-24 hours after transfection, the cells were incubated with conditioned medium containing AP-TALL-1; AP-TNF-alpha; or AP-EDA for 1 hour at room temperature and stained for AP activity in situ as described in Tartaglia et al., Cell, 83:1263-1271 (1995).

Test [9] has as its target T4, Flag-AP-TALL-1 (Example 2 construct, TALL-1 amino acids 135-285) (human, UniProt Q9Y275 135-285).
T4 construct: not shown: Flag tag of the pCMV-1 Flag vector; human placental alkaline phosphatase
Put plainly: conditioned medium on receptor-transfected COS 7 cells, in situ AP staining.

The test “Flag-AP-APRIL” addresses B3. The description is as above.

Eight molecules from patent US20060073146A1 (Genentech, published 2006) can be followed below.

Ends that are not written are not given here.

T1 sequence (P01375 whole entry): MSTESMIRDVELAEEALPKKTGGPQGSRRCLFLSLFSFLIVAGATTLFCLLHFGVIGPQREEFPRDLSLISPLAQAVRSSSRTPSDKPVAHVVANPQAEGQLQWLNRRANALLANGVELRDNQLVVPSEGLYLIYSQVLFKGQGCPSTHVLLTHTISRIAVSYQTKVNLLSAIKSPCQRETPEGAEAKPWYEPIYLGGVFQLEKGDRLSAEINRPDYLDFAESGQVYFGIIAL
T4 sequence (Q9Y275 135-285): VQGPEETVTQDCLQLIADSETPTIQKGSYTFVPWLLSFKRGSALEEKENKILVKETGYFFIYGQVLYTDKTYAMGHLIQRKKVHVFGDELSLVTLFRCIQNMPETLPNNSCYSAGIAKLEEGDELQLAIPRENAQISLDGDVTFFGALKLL

IgG Ctrl (antibody): in the test with Flag-APRIL [1], the % Max Binding to BCMA turned out to be 100%. The % Max Binding to TACI with Flag-APRIL [2] amounted to 100%.
As to B1, the binding result in test [3] was “no binding (tested: 1 µg/ml)”.
B2: the results for the binding result (with Flag-APRIL [4]; with Flag-LIGHT; in [3]) were “binds”, “no binding (tested: 1 µg of each)” and “no binding”, respectively.
Turning to B3, the binding result is given as “no binding (tested: 1 µg of each)” in test [5] and “binds” in test [6].
For the molecule B4, in [5], the binding result is recorded as “no binding (tested: 1 µg of each)”.
As for B5, the binding result in test [7] was “no binding (tested: 1 µg of each)”.
For the molecule B6, the binding result in [8] was “no binding”.
For the molecule B7, the binding result (in [9]; with Flag-AP-APRIL) was “binds” throughout.
